T1: rhBMP-2 (His-tagged, refolded, E. coli-expressed) (human, UniProt P12643 283-396)
T1 sequence: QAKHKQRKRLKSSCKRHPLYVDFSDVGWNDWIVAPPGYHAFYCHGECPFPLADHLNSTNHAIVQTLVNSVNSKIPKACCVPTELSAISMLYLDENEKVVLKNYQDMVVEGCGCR


Columns and labels:
[1] = target: T1, rhBMP-2 (His-tagged, refolded, E. …); test: ELONA; immobilized rhBMP-2, 100 ng/well; EMSA: 20 mM HEPES pH 7.4, 150 mM NaCl, 2 mM MgCl2, 2 mM CaCl2, 2 mM KCl, 37 C 1 h, 12% native PAGE at 4 C; ELONA: His-rhBMP-2 on HisSorb plate, biotinylated DNA 1 h at 37 C, PBST washes; conditions: protein: recombinant, tags: His tag (pET-15b NdeI/BamHI), chain copies: 2, label: biotin (ELONA), none in EMSA
[2] = target: T1, rhBMP-2 (His-tagged, refolded, E. …); test: ELISA-like; fiber of 500 nM BA1 and 10% type I collagen (0.3 mg/mL); EMSA: 20 mM HEPES pH 7.4, 150 mM NaCl, 2 mM MgCl2, 2 mM CaCl2, 2 mM KCl, 37 C 1 h, 12% native PAGE at 4 C; ELONA: His-rhBMP-2 on HisSorb plate, biotinylated DNA 1 h at 37 C, PBST washes; conditions: protein: recombinant; tags: His tag (pET-15b NdeI/BamHI); chain copies: 2; label: biotin

Row | Binder | Kd [1] | other results
1 | BNA2 (ssDNA) DNA: CGTACGGTCGACGCTAGCATCAGCTCTCTGGGCTGAGTGGGTGGTGTGGCACGCACGTGGAGCTCGGATCC | 22.3 ± 1.97 nM | 
2 | BA2 (ssDNA) DNA: CGTACGGTCGACGCTAGCAAAAAAAAATCTAAAAACAAGAAAAGAAAAACAAACACGTGGAGCTCGGATCC | 20.3 ± 4.73 nM | 
3 | BA1 (ssDNA) DNA: CGTACGGTCGACGCTAGCAAAACAAAAAAAAATAAAAAAAAAAAGACTAAAGACACGTGGAGCTCGGATCC |  | Kd ([1]; single strand, predicted hairpin-like): 6.95 ± 0.53 nM
4 | BA1 in collagen fiber (ssDNA) DNA: CGTACGGTCGACGCTAGCAAAACAAAAAAAAATAAAAAAAAAAAGACTAAAGACACGTGGAGCTCGGATCC |  | Kd [2]: ~3.5 nM

— publication PMC10974264, “The Evolution and Application of a Novel DNA Aptamer Targeting Bone Morphogenetic Protein 2 for Bone Regeneration”
